Source: patent US7268108
[ ]: non-standard residue; d: D form. The star is where a group is joined. dPhe(4-NO2) = N[C@H](Cc1ccc([N+](=O)[O-])cc1)C(=O)O; Benzenesulfonyl = O=S(=O)(c1ccccc1)*; d(hPhe) = N[C@H](CCc1ccccc1)C(=O)O; d2Thi = N[C@H](Cc1cccs1)C(=O)O; NMeNle = CCCC[C@H](NC)C(=O)O; PyrProp = pyridinepropionyl; Tos = Cc1ccc(S(=O)(=O)*)cc1; Nle = CCCC[C@H](N)C(=O)O

B1: Compound No. 1 in the Table, Ac-Nle-Ala-His-DPhe-Arg-Trp-NH2 (peptide)
peptide: Ac-[Nle]AH[dF]RW-NH2
B2: Compound No. 14 in the Table, Ac-Nle-Ala-His-DHomoPhe-Arg-Trp-NH2 (peptide)
peptide: Ac-[Nle]AH[d(hPhe)]RW-NH2
B3: Compound No. 11 in the Table, PyrProp-Nle-Ala-His-DpNO2Phe-Arg-Trp-NH2 (peptide)
peptide: PyrProp-[Nle]AH[dPhe(4-NO2)]RW-NH2
B4: Compound No. 2 in the Table, Ac-Nle-Ala-His-DPhe-Lys-Trp-NH2 (peptide)
peptide: Ac-[Nle]AH[dF]KW-NH2
SMILES: CCCC[C@H](NC(C)=O)C(=O)N[C@@H](C)C(=O)N[C@@H](Cc1c[nH]cn1)C(=O)N[C@H](Cc1ccccc1)C(=O)N[C@@H](CCCCN)C(=O)N[C@@H](Cc1c[nH]c2ccccc12)C(N)=O
B5: Compound No. 13 in the Table, Ac-MeNle-Ala-His-DHomoPhe-Arg-Trp-NH2 (peptide)
peptide: Ac-[NMeNle]AH[d(hPhe)]RW-NH2
B6: Compound No. 3 in the Table, Ac-Nle-Ala-His-DThi-Arg-Trp-NH2 (peptide)
peptide: Ac-[Nle]AH[d2Thi]RW-NH2
B7: Compound No. 5 in the Table, Tos-Nle-Ala-His-DPhe-Arg-Trp-NH2 (peptide)
peptide: Tos-[Nle]AH[dF]RW-NH2
B8: Compound No. 4 in the Table, BzlSO2-Nle-Ala-His-DPhe-Arg-Trp-NH2 (peptide)
peptide: Benzenesulfonyl-[Nle]AH[dF]RW-NH2
B9: Compound No. 6 in the Table, BzlSO2-Nle-Ala-His-DPhe-Lys-Trp-NH2 (peptide)
peptide: Benzenesulfonyl-[Nle]AH[dF]KW-NH2
SMILES: CCCC[C@H](NS(=O)(=O)c1ccccc1)C(=O)N[C@@H](C)C(=O)N[C@@H](Cc1c[nH]cn1)C(=O)N[C@H](Cc1ccccc1)C(=O)N[C@@H](CCCCN)C(=O)N[C@@H](Cc1c[nH]c2ccccc12)C(N)=O

Biological target: melanocortin-1 receptor (MC-1r) on murine melanocytes (line S91 Cloudman) (murine) (UniProt Q01727)
Sequence (Q01727 whole entry): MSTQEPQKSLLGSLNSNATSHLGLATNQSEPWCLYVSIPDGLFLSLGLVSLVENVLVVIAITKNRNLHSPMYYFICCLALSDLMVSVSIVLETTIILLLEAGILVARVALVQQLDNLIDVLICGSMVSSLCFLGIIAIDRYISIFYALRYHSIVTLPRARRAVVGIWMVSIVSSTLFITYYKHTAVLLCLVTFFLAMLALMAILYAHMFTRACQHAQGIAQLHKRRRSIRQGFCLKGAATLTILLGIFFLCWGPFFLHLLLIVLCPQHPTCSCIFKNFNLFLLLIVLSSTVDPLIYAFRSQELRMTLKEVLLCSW
Experiment: cell-based or functional assay

Binder	cAMP production (as % of α-MSH)
B1	80 % of α-MSH
B2	45 % of α-MSH
B3	150 % of α-MSH
B4	40 % of α-MSH
B5	55 % of α-MSH
B6	10 % of α-MSH
B7	100 % of α-MSH
B8	70 % of α-MSH
B9	55 % of α-MSH
